Our source for the Heavy chain heteromultimer (TG, T1G2, QJ, Q3J4) (%) values is US20260217835A1.

The assay has as its target GCH065-G1T6v2/L0011-kT0. Description: CIEX peak area ratio; coexpression from mRNAs (heavy 1/light/heavy 2 = 1/4/1) in Expi293 cells.

GCH065-G1T6v2/L0011-kT0, sequence (heavy, as listed by the source): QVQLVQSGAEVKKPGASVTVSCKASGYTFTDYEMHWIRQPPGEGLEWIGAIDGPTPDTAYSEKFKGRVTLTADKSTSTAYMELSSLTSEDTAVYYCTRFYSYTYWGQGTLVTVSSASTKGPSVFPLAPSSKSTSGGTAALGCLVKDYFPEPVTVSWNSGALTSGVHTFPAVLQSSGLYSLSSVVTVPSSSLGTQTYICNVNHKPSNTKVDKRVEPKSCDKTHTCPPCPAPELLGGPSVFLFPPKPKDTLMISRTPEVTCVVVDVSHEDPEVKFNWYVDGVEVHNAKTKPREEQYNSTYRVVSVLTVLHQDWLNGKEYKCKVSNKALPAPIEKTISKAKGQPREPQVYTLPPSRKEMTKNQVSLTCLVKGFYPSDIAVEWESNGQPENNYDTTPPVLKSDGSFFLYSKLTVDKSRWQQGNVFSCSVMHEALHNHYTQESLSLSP

B1: TR01H113-G1T6/L0011-kT0 (antibody, human IgG1, kappa, V domains shown)
VH: QVQLVESGGGVVQPGGSLRLSCAASGFTFSNAWMHWVRQAPGKGLEWVAQIKDKSQNYATYVAESVKGRFTISRADSKNSIYLQMNSLKTEDTAVYYCRYVHYAAGYGVDIWGQGTTVTVSS
VL: DIVMTQSPLSLPVTPGEPASISCRSSQPLVHSNRNTYLHWYQQKPGQAPRLLIYKVSNRFSGVPDRFSGSGSGTDFTLKISRVEAEDVGVYYCGQGTQVPYTFGQGTKLEIKR
As for B1, the Heavy chain heteromultimer (TG, T1G2, QJ, Q3J4) (%) stood at 2.07%.
